Laboratory results published in US12391768B2, “Antibodies to ticagrelor and methods of use” (MEDIMMUNE LIMITED, priority 2014, dated 2025).

B1: TICA0212: combination of TICA0162 and TICA0152; VH SEQ ID NO:72, VL SEQ ID NO:77 (antibody, listed as Homo sapiens, V domains shown)
VH: QVQLQESGAEVKKPGSSVRVSCKASGGTFDSYSIHWVRQAPGQGLEWMGGIIPAFGTLSSAQDFQARVTISADKSTSTAYMELSGLRSEDTAVYYCARGSFDYYFWSASHPPNDALAIWGQGTLVTVSS
VL: QSVVTQPPSVSAAPGQKVTISCSGSNSDIGNNYVSWYQQLPGTAPKLLIYDNNKRPSGIPDRFSGSKSGTSATLAITGLQAGDEADYYCGTWLYDRAVGLFGGGTKVTVL

Key:
TICA0053 Fab = assay: HTRF competition binding selectivity assay, TICA0053 His-Fab; parameters: species or system human; conditions: first series (Table 2), not DMSO normalised; read-out: IC50 (uM) for inhibition of biotinylated ticagrelor binding to TICA0053 his-Fab
Procedure: Total Binding control wells were set up which contained all of the assay components above except that 5 ul assay buffer was added in place of the test selectivity compound addition. Negative Binding control wells were set up which contained all of the assay components included in the Total Binding control wells except that 5ul assay buffer was added in place of the His-Fab addition. Test compound serial titrations were either ½ or ⅓ depending on the particular experiment and top final assay compound concentrations were optimized on a compound specific basis. The concentration of biotinylated ticagrelor and His-Fab was optimized on a Fab specific basis in separate experiments. For the four Fabs investigated at the end of the lead isolation phase (TICA0010, TICA0049, TICA0053 and TICA0072) the final assay reagent concentrations used are set out in Table 1 below:
For the two Fabs investigated at the end of the lead optimization phase (TICA0162 and TICA0212) the final assay reagent concentrations used were 5nM biotinylated ticagrelor and 1 nM His Fab in both cases. […] In order to enable subsequent normalization of data to correct for any such vehicle related effects parallel titrations of DMSO alone were included in most experiments in which the final assay DMSO concentrations mirrored those of the test compound serial dilutions. At the end of the set up procedure that assay was incubated for 3hrs at RT before being read on an Envision plate reader using a standard read protocol.
The negative ratio value used in the calculation of % Delta F was derived from the Negative Binding control wells. % Delta F values were then used to calculate % Specific Binding values according to the equation below: Specific Binding (%)={(Sample Delta F−Negative Binding Delta F)/(Total Binding Delta F−Negative Binding Delta F)}×100
For standard calculations of % Specific Binding Total Binding Delta F was taken from Total Binding control wells which contained all of the aforementioned components of the assay but without inclusion of any competing test compound.
In those experiments where DMSO normalization was applied DMSO normalised % Specific Binding was calculated essentially according to the equation above except that in this case Total Binding Delta F was taken from wells containing all of the components in the Total Binding control wells as well as DMSO at a concentration equivalent to that in the relevant sample well.

[1] = parameters: species or system mice; conditions: mouse, in vivo
Procedure: The method was optimized based on a previous published method [Sillen H., et al., J Chromatogr B Analyt Technol Biomed Life Sci. 2011 Aug. 1; 879(23): 2315-22]. Dialysis membranes (Spectrum Laboratories, Inc) which allows molecules with a mass below 6 to 8 kDa to pass through, was soaked in ELGA water for 10 to 15 min and placed between the dialysis plate halves (in house made). Plasma, 130 μL, was added to one side of the dialysis plate and 130 μL phosphate buffer, pH 7.0, was added to the opposite side. The wells on both sides were sealed with lids and aluminum plates were put on top on each side of the plate to avoid leakage. The plate was then placed vertical on an orbital shaker at 100 rpm/min at 37° C. for 24 h. The dialysis was terminated by transferring of 50 μL retentate from plasma side and 75 μL dialysate from buffer side to a protein LoBind PCR clean 96 deep-well plate containing 150 μL respective 75 μL internal standard (D7-ZD6140) in acetonitrile. The plate was mixed for 1 min and then centrifuged for 20 min, 1500× g at 4° C. After centrifugation 50 μL supernatant from the precipitated retentate was transferred and diluted with 50 μL ELGA H2O before LC-MS/MS (Acquity Ultra Performance LC coupled to a Xevo TQ-S mass spectrometer, Waters) analysis. No quality control samples were used in the analysis. […]

[2] = human, in vivo; cited from earlier work
[3] = system: ticagrelor mediated inhibition of ADP-induced platelet aggregation; assay: Light transmission aggregometry in human PRP, reversal of ticagrelor; assay type: cell-based; conditions: for mean extent of reversal of ticagrelor mediated inhibition: Example 10, 1 μM Fab, n=3
Procedure: (§1) The extent and potency of TICA0212/MEDI2452 to reverse ticagrelor or TAM mediated inhibition of ADP-induced platelet aggregation was determined in human platelet rich plasma (PRP) using light transmission aggregometry.
(§2) For the in vitro human PRP assay, blood was collected from fasted healthy volunteers by vein puncture of vena cephalica. […] The anticoagulated human blood was centrifuged at 240× g for 15 min. PRP was carefully removed and transferred to a clean vial. Platelet poor plasma (PPP) was prepared by centrifugation of the PRP at 2000× g for 15 min. Light transmission aggregometry (LTA) was evaluated in PRP by the Platelet Aggregation Profiler (PAP-8E, Bio/Data Corporation, PA, USA.). Zero % aggregation was defined as the light transmission of PRP and 100% aggregation was defined as the light transmission of PPP.
(§3) PRP was preincubated with 1 μM ticagrelor or TAM for 1 hour before co-incubating with different concentrations of TICA0212 or an isotype control Fab for 30 minutes. Platelet aggregation was initiated by addition of 20 uM ADP and was continuously recorded for 6 min. Data for final aggregation (FA) extent at 6 min was analysed.
(§4) The time of onset of TICA0212/MEDI2452 to reverse ticagrelor or TAM was determined in human platelet rich plasma (PRP) using light transmission aggregometry as in example 8. PRP was preincubated with 1 μM ticagrelor or TAM for 1 hour before adding 1 μM TICA0212/MEDI2452 and co-incubating for 5, 10, 15, 30 and 60 min, or adding an isotype control Fab for 30 min. Platelet aggregation was initiated by addition of 20 μM ADP and was continuously recorded for 6 min. Data for final aggregation (FA) extent at 6 min was analyzed.

[4] = system: TAM mediated inhibition of ADP-induced platelet aggregation; assay: Light transmission aggregometry in human PRP, reversal of TAM; assay type: cell-based; conditions: for mean extent of TAM reversal: Example 10, 1 μM Fab, n=3
Procedure: as §1, §2, §3, §4

Molecule	IC50 (TICA0053 Fab)	mean free plasma concentration of ticagrelor [1]	circulating half-life [2]	IC50 ([3]; 1 μM ticagrelor, 20 μM ADP, human PRP, 30 min co-incubation, mean n=5, read-out: IC50, half-maximum reversal of ticagrelor mediated inhibition of ADP-induced platelet aggregation)	mean extent of reversal of ticagrelor ([3]; Example 9, 1:1 conditions (1 μM Fab: 1 μM ticagrelor), 30 min incubation)	mean extent of reversal of ticagrelor mediated inhibition ([3]; 1 μM ticagrelor, co-incubation 5 min)	mean extent of reversal of ticagrelor mediated inhibition ([3]; 1 μM ticagrelor, co-incubation 10 min)	mean extent of reversal of ticagrelor mediated inhibition ([3]; 1 μM ticagrelor, co-incubation 15 min)	mean extent of reversal of ticagrelor mediated inhibition ([3]; 1 μM ticagrelor, co-incubation 30 min)	mean extent of reversal of ticagrelor mediated inhibition ([3]; 1 μM ticagrelor, co-incubation 60 min)	IC50 ([4]; 1 μM TAM, 20 μM ADP, human PRP, 30 min co-incubation, mean n=5, read-out: IC50, half-maximum reversal of TAM mediated inhibition of ADP-induced platelet aggregation)	mean extent of reversal of TAM ([4]; Example 9, 1:1 conditions (1 μM Fab: 1 μM TAM), 30 min incubation)	mean extent of TAM reversal ([4]; 1 μM TAM, co-incubation 5 min)	mean extent of TAM reversal ([4]; 1 μM TAM, co-incubation 10 min)	mean extent of TAM reversal ([4]; 1 μM TAM, co-incubation 15 min)	mean extent of TAM reversal ([4]; 1 μM TAM, co-incubation 30 min)	mean extent of TAM reversal ([4]; 1 μM TAM, co-incubation 60 min)
CCCSc1nc(N[C@@H]2C[C@H]2c2ccc(F)c(F)c2)c2nnn([C@@H]3C[C@H](OCCO)[C@@H](O)[C@H]3O)c2n1 [Ticagrelor, (1S,2S,3R,5S)-3-[7-{[(1R,2S)-2-(3,4-difluorophenyl)cyclopropyl]amino}-5-(propylthio)-3H-[1,2,3]triazolo[4,5-d]pyrimidin-3-yl]-5-(2-hydroxyethoxy)cyclopentane-1,2-diol]	0.109 µM	4.7 nM	8 h	–	–	–	–	–	–	–	–	–	–	–	–	–	–
B1	–	–	–	640 nM	78%	85%	69%	74%	80%	81%	780 nM	62%	53%	56%	58%	69%	74%
